Patent US20240116997A1 (BRIGHT PEAK THERAPEUTICS, published 2024)

Columns and labels:
[1] = target: T1, IL-18 receptor (IL-18Rαβ) on cells (UniProt Q13478 19-541; O95256 20-599, limits assumed); assay: cell-based or functional assay
T1 sequence (looked up) 1: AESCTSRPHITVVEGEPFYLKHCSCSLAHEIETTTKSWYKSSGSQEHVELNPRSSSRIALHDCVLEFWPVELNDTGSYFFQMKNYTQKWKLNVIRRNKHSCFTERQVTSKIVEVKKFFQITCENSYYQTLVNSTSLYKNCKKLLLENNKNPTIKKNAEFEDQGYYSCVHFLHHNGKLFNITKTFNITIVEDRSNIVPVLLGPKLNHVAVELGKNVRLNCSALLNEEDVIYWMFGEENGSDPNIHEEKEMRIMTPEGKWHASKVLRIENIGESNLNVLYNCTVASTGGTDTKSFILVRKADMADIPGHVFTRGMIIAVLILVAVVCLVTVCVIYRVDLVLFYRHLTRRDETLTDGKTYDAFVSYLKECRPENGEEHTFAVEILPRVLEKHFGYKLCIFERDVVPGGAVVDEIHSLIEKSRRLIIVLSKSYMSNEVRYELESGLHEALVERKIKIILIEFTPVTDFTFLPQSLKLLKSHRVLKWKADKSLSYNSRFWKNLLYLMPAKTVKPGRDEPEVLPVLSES
T1 sequence (looked up) 2: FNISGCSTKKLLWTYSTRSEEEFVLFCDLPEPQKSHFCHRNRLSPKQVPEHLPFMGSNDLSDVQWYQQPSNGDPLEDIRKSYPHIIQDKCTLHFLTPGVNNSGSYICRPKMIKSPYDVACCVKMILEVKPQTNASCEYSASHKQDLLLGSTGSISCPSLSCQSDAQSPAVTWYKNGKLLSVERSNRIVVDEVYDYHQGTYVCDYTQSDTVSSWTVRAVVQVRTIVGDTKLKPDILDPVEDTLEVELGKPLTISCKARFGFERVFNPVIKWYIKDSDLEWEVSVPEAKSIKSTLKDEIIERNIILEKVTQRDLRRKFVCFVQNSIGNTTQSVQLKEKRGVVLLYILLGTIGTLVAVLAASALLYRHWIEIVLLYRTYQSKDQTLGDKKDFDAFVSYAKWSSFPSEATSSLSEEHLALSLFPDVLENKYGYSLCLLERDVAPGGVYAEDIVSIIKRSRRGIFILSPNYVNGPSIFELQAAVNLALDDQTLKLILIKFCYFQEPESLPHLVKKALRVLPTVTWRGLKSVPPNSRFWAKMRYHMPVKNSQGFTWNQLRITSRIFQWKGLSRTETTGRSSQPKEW

[2] = target: T1, IL-18 receptor (IL-18Rαβ) on cells; assay: cell-based or functional assay; remark: listed apart in the source

Binder	EC50 (pM), HEK-Blue IL-18R reporter assay [1] [pM]	EC50 (nM), IFNγ induction, NK-92 cells [2] [nM]
IL-18 polypeptide SEQ ID NO: 42 (E06K, K53A, S55A, T63A) (ligand) YFGKLKSKLSVIRNLNDQVLFIDQGNRPLFEDMTDSDCRDNAPRTIFIISMYADAQPRGMAVAISVKCEKISTLSCENKIISFKEMNPPDNIKDTKSDIIFFQRSVPGHDNKMQFESSSYEGYFLACEKERDLFKLILKKEDELGDRSIMFTVQNED	0.79	0.144
IL-18 polypeptide SEQ ID NO: 9 (E6K, C38A, K53A, C68A, D98C) (ligand) YFGKLKSKLSVIRNLNDQVLFIDQGNRPLFEDMTDSDARDNAPRTIFIISMYADSQPRGMAVTISVKAEKISTLSCENKIISFKEMNPPDNIKDTKSCIIFFQRSVPGHDNKMQFESSSYEGYFLACEKERDLFKLILKKEDELGDRSIMFTVQNED	–	0.069
IL-18 polypeptide SEQ ID NO: 5 (E6K, V11I, C38A, K53A, T63A, C68A, C76A, M86C, C127A) (ligand) YFGKLKSKLSIIRNLNDQVLFIDQGNRPLFEDMTDSDARDNAPRTIFIISMYADSQPRGMAVAISVKAEKISTLSAENKIISFKECNPPDNIKDTKSDIIFFQRSVPGHDNKMQFESSSYEGYFLAAEKERDLFKLILKKEDELGDRSIMFTVQNED	–	0.075
IL-18 polypeptide SEQ ID NO: 4 (E6K, C38A, K53A, C68A, M86C) (ligand) YFGKLKSKLSVIRNLNDQVLFIDQGNRPLFEDMTDSDARDNAPRTIFIISMYADSQPRGMAVTISVKAEKISTLSCENKIISFKECNPPDNIKDTKSDIIFFQRSVPGHDNKMQFESSSYEGYFLACEKERDLFKLILKKEDELGDRSIMFTVQNED	–	0.022
IL-18 polypeptide SEQ ID NO: 35 (Y01G, F02A, E06K, M51G, K53A, D54A, S55A, T63A) (ligand) GAGKLKSKLSVIRNLNDQVLFIDQGNRPLFEDMTDSDCRDNAPRTIFIISGYAAAQPRGMAVAISVKCEKISTLSCENKIISFKEMNPPDNIKDTKSDIIFFQRSVPGHDNKMQFESSSYEGYFLACEKERDLFKLILKKEDELGDRSIMFTVQNED	–	> 55

The remaining lines, values ahead:

EC50 (pM), HEK-Blue IL-18R reporter assay [1] [pM]	EC50 (nM), IFNγ induction, NK-92 cells [2] [nM]	Binder
0.268	0.045	IL-18 polypeptide SEQ ID NO: 59 (E6K, C38A, K53A) (ligand) YFGKLKSKLSVIRNLNDQVLFIDQGNRPLFEDMTDSDARDNAPRTIFIISMYADSQPRGMAVTISVKCEKISTLSCENKIISFKEMNPPDNIKDTKSDIIFFQRSVPGHDNKMQFESSSYEGYFLACEKERDLFKLILKKEDELGDRSIMFTVQNED
0.17	0.006	IL-18 polypeptide SEQ ID NO: 62 (E6K, C38A, K53A, C127A) (ligand) YFGKLKSKLSVIRNLNDQVLFIDQGNRPLFEDMTDSDARDNAPRTIFIISMYADSQPRGMAVTISVKCEKISTLSCENKIISFKEMNPPDNIKDTKSDIIFFQRSVPGHDNKMQFESSSYEGYFLAAEKERDLFKLILKKEDELGDRSIMFTVQNED
0.203	0.015	IL-18 polypeptide SEQ ID NO: 60 (E6K, C38Q, K53A) (ligand) YFGKLKSKLSVIRNLNDQVLFIDQGNRPLFEDMTDSDQRDNAPRTIFIISMYADSQPRGMAVTISVKCEKISTLSCENKIISFKEMNPPDNIKDTKSDIIFFQRSVPGHDNKMQFESSSYEGYFLACEKERDLFKLILKKEDELGDRSIMFTVQNED
1.77	0.0268	IL-18 polypeptide SEQ ID NO: 50 (E06K, K53A, T63A) (ligand) YFGKLKSKLSVIRNLNDQVLFIDQGNRPLFEDMTDSDCRDNAPRTIFIISMYADSQPRGMAVAISVKCEKISTLSCENKIISFKEMNPPDNIKDTKSDIIFFQRSVPGHDNKMQFESSSYEGYFLACEKERDLFKLILKKEDELGDRSIMFTVQNED
9.12	0.962	IL-18 polypeptide SEQ ID NO: 54 (E06K, K53A, C38S, C68S, C76S, C127S, K70C) (ligand) YFGKLKSKLSVIRNLNDQVLFIDQGNRPLFEDMTDSDSRDNAPRTIFIISMYADSQPRGMAVTISVKSECISTLSSENKIISFKEMNPPDNIKDTKSDIIFFQRSVPGHDNKMQFESSSYEGYFLASEKERDLFKLILKKEDELGDRSIMFTVQNED
